Experiments:
human VEGF-A [1] = molecular target: T1, human VEGF-A (human, UniProt P15692-4 27-191, limits assumed); test: SPR (Biacore T100); IgG over 100 RU human VEGF-A on a CM5 chip; 1:1 fit; 37°C
T1 construct: Sources differ between assays (Dr. Brekken; R&D Systems); also called VEGF-biotin (biotinylated form in the receptor ELISA)
Experimental: (§1) The background signal from a flow cell coated with BSA was subtracted from the binding curves. The binding affinity expressed as the KD was calculated by the 1:1 Fitting model using software belonging to the Biacore T100 machine.

human VEGF-A [2] = molecular target: T1, human VEGF-A; test: SPR (Biacore T100); IgG over 100 RU human VEGF-A on a CM5 chip; 1:1 fit; 25°C
Experimental: as §1

human VEGF-A [3] = molecular target: T1, human VEGF-A; test: SPR (Biacore T100); IgG over 100 RU human VEGF-A on a CM5 chip
Experimental: as §1

human VEGF-A [4] = molecular target: T1, human VEGF-A; test: SPR (Biacore 3000); IgG over immobilized VEGF-A; 1:1 binding model; initial study; initial study; Biacore 3000; IgG over immobilized VEGF-A

T1 sequence (P15692 other isoform, or with tags, fused parts or gaps limits assumed): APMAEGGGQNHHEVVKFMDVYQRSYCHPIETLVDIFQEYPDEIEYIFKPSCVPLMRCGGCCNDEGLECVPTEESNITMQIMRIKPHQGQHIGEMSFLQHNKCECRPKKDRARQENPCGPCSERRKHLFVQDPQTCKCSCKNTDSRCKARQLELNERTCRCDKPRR

B1: r84/PGN311 full length fully human IgG (antibody, V domains shown)
VH: QVQLVQSGAEVKKPGASVKVSCKASGGTFSSYAISWVRQAPGQGLEWMGGFDPEDGETIYAQKFQGRVTMTEDTSTDTAYMELSSLRSEDTAVYYCATGRSMVRGVIIPFNGMDVWGQGTTVTVSS
VL: not shown
notes: Human IgG1/kappa (Lonza pCon IgG1a and kappa vectors, CHO K1SV cells); also called r84 IgG; r84/PGN311 IgG
Human VEGF-A [1]
  Kd: 5.22 nM
Human VEGF-A [2]
  Kd: 3.21 nM
Human VEGF-A [3]
  fold reduction of KD, 25°C versus 37°C: < 2 fold
Human VEGF-A [4]
  Kd: 6.7 nM
